Test results reported in patent US8460664 (ACADEMIA SINICA, dated 2013).

T1: P3 peptide (human)
T1 peptide: GAGRADWPGPPELDV

T2: P1 peptide (human)
T2 construct: Synthetic peptide
T2 peptide: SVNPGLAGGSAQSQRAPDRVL


How the values were obtained:
[1] = biological target: mIgE.FcL on transfected Ramos cells (human, UniProt P01854 104-546, limits assumed); test: cell-based or functional assay
[2] = biological target: T1, P3 peptide; test: ELISA on coated peptide (500 ng/well)
Procedure: (§1) To explore the specificity of anti-CεmX mAbs to CεmX, the various CεmX-specific clones were then tested for reactivity with 3 synthetic peptides, representing 3 consecutive segments of CεmX, divided by a C residue located at residue #18 and a CHC segment at residues #39-41. Specifically, P1 peptide contains the last 4 amino acid residues of CH4 of Mε and first 17 amino acid residues (#1-17), namely, […] (SEQ ID NO:2), of CεmX; P2 peptide contains 20 amino acid residues #19-38, namely, […] (SEQ ID NO:3), of CεmX; P3 peptide contains the terminal 11 amino acid residues (#42-52), namely, […]_(SEQ ID NO:4), of CεmX and first 4 amino acid residues of the consecutive migis region, namely, the N-terminal extracellular region of the membrane anchor peptide of Mε chain. All peptides were synthesized at Genomics Research Center, Academia Sinica (Taipei, Taiwan). The peptides were reconstituted with PBS at a concentration of 10 mg/ml. All peptides were coated on 96-well MaxiSorp plates at 500 ng/well in 0.1M NaCO_3 (pH 9.6) at 4° C. overnight. Coated wells were blocked by 200 μl/well of 1% BSA in PBS at room temperature for 1 hour. Plates were washed three times with 200 μl/well of PBS with 0.05% Tween-20, followed by adding 100 μl of 1 μg/ml anti-CεmX mAbs to wells.

[3] = biological target: T3, mIgE.FcS on transfected CHO cells (human, UniProt P01854-3 104-494, limits assumed); test: flow cytometry, hybridoma supernatants
T3 construct: domain: CH2 domain through the cytoplasmic end of mεS (CH2-CM), on cells; Lacks the CεmX domain; No coreceptors are present in CHO cells; also called CHO cells expressing mIgE.FcS; mεS(CH2-CM)
Excerpt: (§2) We further tested the ability of various CεmX-specific monoclonal antibodies to bind to CHO and Ramos cell lines that were transfected with either recombinant DNA encoding mε_{L(CH2-CM)} or mε_{S(CH2-CM)}. […] The transfected two Ramos cell lines respectively produced mIgE.Fc_L or mIgE.Fc_S, both of which form complexes with their native coreceptors. To investigate the binding of anti-CεmX mAbs to native CεmX, CHO or Ramos cells expressing mIgE.Fc_L or mIgE.Fc_S were resuspended in FACS buffer [PBS, 1% FBS, 0.1% sodium azide, and 2 mM EDTA (pH 8.0)] at a cell density of 10^7 cells/ml. 10^6 cells were then incubated for 30 min on ice with 100 μl of hybridoma supernatants, followed by washing with FACS buffer. Bound antibodies were detected by incubation for 30 minutes on ice with FITC-labeled rabbit F(ab')_2 fragment specific for mouse IgG (AbD Secrotec), followed by washing twice with FACS buffer prior to analysis. Flow cytometry experiments were performed using a FACSCanto II flow cytometer (BD Bioscience) and analyzed using FCSExpress software (De Novo Software).

[4] = biological target: T4, mIgE.FcS on transfected Ramos cells (human, UniProt P01854-3 104-494, limits assumed); test: flow cytometry, hybridoma supernatants
T4 construct: domain: CH2 domain through the cytoplasmic end of mεS (CH2-CM), on cells; Lacks the CεmX domain; It forms complexes with the native coreceptors of Ramos cells; also called Ramos cells expressing mIgE.FcS; mεS(CH2-CM)
Excerpt: as §2

[5] = biological target: T2, P1 peptide; test: ELISA, 1 µg/ml antibody on coated peptide (500 ng/well)
Procedure: as §1

T3 sequence (P01854 other isoform, or with tags, fused parts or gaps limits assumed): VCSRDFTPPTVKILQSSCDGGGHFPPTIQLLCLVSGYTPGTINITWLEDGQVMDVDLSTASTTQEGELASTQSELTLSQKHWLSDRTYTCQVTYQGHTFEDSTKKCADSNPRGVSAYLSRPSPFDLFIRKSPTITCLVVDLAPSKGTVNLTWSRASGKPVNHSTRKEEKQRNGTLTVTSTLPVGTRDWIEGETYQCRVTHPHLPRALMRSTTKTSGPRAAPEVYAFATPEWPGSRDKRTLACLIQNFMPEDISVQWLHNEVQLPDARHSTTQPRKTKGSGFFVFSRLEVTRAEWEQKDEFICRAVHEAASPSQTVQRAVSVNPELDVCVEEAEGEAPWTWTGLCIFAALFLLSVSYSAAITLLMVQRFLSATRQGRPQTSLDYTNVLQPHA
T4 sequence (P01854 other isoform, or with tags, fused parts or gaps limits assumed): as above
mIgE.FcL on transfected Ramos cells, sequence (P01854 104-546 limits assumed): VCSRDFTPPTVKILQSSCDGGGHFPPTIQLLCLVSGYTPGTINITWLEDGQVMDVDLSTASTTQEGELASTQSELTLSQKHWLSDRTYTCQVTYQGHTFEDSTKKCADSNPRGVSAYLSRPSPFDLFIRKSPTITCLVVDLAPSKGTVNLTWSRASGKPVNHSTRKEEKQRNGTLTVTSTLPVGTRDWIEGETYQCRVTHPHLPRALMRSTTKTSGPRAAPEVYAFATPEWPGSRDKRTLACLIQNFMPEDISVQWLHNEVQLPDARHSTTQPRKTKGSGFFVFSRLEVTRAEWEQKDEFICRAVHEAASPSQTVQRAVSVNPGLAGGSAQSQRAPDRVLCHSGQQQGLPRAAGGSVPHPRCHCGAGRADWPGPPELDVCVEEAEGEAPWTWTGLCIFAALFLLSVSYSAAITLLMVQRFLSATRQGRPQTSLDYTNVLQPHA

Row | ADCC, specific lysis at an E/T ratio of 50 (antibody 1 µg/ml, PBMC effectors) [1] [%] | binding result [2] | binding result [3] | binding result [4] | binding result [5] | Binder
1 | ≤ 60 | – | – | – | – | chimeric 4B12 (antibody, V domains shown) VH: DVQLQESGPGLVKPSQSLSLTCTVTGYSITSDYAWNWIRQFPGNKLEWMGSISYSGITGYNPSLKSRISVTRDTSKNQFFLQLNSVTTEDTATYYCARMGYDGLAYWGHGTTVTVSA VL: DVLMTQTPLSLPVSLGDQASISCRSSQSIVHSNGNTYLEWYLQKPGQSPKLLIYKVSNRFSGVPDRFSGSGSGTDFTFKISRVEAEDLGVYYCFQGSHVPPTFGGGTKLEIKR
2 | – | no binding (tested: 1 µg/ml) | no binding | no binding | binds | mouse monoclonal antibody 4B12 (antibody, V domains shown, Mouse hybridoma IgG, detected with anti-mouse IgG; also called parental mouse 4B12) VH: DVQLQESGPGLVKPSQSLSLTCTVTGYSITSDYAWNWIRQFPGNKLEWMGSISYSGITGYNPSLKSRISVTRDTSKNQFFLQLNSVTTEDTATYYCARMGYDGLAYWGHGTTVTVSA VL: DVLMTQTPLSLPVSLGDQASISCRSSQSIVHSNGNTYLEWYLQKPGQSPKLLIYKVSNRFSGVPDRFSGSGSGTDFTFKISRVEAEDLGVYYCFQGSHVPPTFGGGTKLEIKR
